From patent US10925971B2, “Methods of treating PRLR positive breast cancer” (Regeneron Pharmaceuticals, Inc., priority 2016, dated 2021)

B1: H1H6765P: fully human anti-PRLR antibody, human IgG1 Fc; HCVR/LCVR SEQ ID NOs 18/26 (antibody, V domains shown)
VH: EVQLVESGGGVVRPGGSLRLSCVGSGFSFDDHGMNWVRQGPGKGLEWVSGFNWNGGSTNYAESVKGRFTISRDNARNSLFLQMNSLRAEDTALYYCVRGRSGWFNDAFDVWGPGTMVTVSS
VL: EIVLTQSPGTLSLSPGERATLSCRASQTINSNYLAWYRQKPGQTPRLLIYGTSSRATGIPDRFSGSGSGTDFSLTISRLEPEDFAVFYCQQYAGLPTFGPGTKVDIK
B2: H1H6958N2: anti-PRLR antibody, receptor blocking, human IgG1 Fc form of H2M6958N2 of Table 1; HCVR/LCVR SEQ ID NOs 290/298 (antibody, V domains shown)
VH: QVQLVESGGGVVQPGRSLRLSCGASGFTFRNYGMQWVRQGPGKGLEWVTLISFDGNDKYYADSVKGRFTISRDNSKNTLFLQMNSLRTEDTAVYYCARGGDFDYWGQGTLVTVSS
VL: DIQMTQSPSSLSASVGDRVTITCRASQDIRKDLGWYQQKPGKAPKRLIYAASSLHSGVPSRFSGSGSGTEFTLTISSLQPEDFATYYCLQHNSYPMYTFGQGTKLEIK
B3: H1H6782P: fully human anti-PRLR antibody, non-blocking; HCVR/LCVR SEQ ID NOs 66/74 (antibody, V domains shown)
VH: EVQLVESGGGLVQPGRSLRLSCAASGFTFDDYAMHWVRQAPGKGLEWVSGIIWNSGHIGYGDSVKGRFTISRDNAKKSLYLQMNSLRAEDTALYYCARDSGRYQSYFDYWGQGTLVTVSS
VL: DIQMTQSPSTLSASVGDRVTITCRASHIISSWLAWYQQKPGKAPKVLIFKASSLESGVPSRFSGSGSGTEFTLTISSLQPDDFATYYCQQYNTYSRTFGQGTKVEIK

Key:
[1] = biological target: T1, human PRLR on HEK293/hPRLR cells (Homo sapiens, UniProt P16471); assay: FACS cell surface binding
T1 construct: HA; expressed in transfected cells; host or cells: HEK293
T1 sequence (P16471 25-622): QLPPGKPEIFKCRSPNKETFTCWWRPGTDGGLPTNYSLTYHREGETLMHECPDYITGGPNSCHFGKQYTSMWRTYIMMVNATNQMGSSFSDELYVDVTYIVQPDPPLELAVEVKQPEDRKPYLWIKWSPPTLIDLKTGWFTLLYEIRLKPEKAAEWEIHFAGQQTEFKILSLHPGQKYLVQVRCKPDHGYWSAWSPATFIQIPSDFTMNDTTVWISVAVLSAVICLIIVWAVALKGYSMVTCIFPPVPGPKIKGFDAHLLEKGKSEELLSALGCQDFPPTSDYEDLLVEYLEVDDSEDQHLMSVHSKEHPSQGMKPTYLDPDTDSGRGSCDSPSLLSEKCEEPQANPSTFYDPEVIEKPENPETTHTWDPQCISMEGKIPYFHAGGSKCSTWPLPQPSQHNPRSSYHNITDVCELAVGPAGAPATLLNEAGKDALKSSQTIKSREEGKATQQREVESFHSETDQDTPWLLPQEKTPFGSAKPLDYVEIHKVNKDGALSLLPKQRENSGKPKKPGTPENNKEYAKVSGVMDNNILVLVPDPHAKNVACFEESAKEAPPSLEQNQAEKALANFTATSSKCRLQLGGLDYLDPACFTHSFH
Method in brief: (§1)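 Stable HEK293 transfectants carrying HA-tagged PRLR (human, Macaca fascicularis, mouse) were selected ≥2 weeks in G418. Cells were exposed to 10 μg/ml test antibody on ice for 30 min, washed, and labelled with PE anti-human antibody. Fluorescence was reported as fold change versus isotype.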

[2] = biological target: T2, mouse PRLR on HEK293/mPRLR cells (Mus musculus, UniProt Q08501); assay: FACS cell surface binding
T2 construct: HA; expressed in transfected cells; host or cells: HEK293
T2 sequence (Q08501 20-608): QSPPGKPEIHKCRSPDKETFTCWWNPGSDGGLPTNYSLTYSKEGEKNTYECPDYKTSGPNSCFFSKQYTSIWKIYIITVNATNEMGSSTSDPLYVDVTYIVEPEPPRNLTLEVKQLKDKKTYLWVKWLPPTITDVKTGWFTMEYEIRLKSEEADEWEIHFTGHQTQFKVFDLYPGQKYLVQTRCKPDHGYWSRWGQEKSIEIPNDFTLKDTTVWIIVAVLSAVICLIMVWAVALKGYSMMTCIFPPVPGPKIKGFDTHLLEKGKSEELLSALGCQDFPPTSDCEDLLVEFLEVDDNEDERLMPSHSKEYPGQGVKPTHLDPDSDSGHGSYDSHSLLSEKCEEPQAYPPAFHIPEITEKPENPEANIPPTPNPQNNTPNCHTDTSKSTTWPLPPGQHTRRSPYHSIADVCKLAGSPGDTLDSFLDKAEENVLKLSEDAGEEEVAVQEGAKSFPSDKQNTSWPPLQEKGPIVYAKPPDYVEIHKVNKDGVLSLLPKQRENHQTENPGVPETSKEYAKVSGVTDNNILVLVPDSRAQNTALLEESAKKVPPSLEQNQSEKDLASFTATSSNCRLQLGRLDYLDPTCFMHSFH
Method in brief: as §1

[3] = biological target: T3, native PRLR expressing T47D cells (Homo sapiens, UniProt P16471); assay: FACS cell surface binding
T3 construct: a native PRLR expressing cell line (T47D); endogenous in cells; host or cells: T47D
T3 sequence (P16471 25-622): T1 sequence (P16471 25-622)
Method in brief: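 Binding expressed as mean fluorescence fold change above isotype background, measured by FACS after 30 min on ice with 10 μg/ml antibody and PE-conjugated anti-human detection. T47D, which natively expresses PRLR, tested with engineered HEK293/hPRLR and non-expressing HEK293 cells.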

MCF7/PRLR tumors = assay: MCF7/PRLR breast cancer xenograft, tumor size and tumor growth inhibition; assay type: in vivo, NCr nude mice
Method in brief: (§2)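 MCF7/PRLR cells in mammary fat pad of female NCr nude mice, PC3/PRLR in flank of male SCID, T47D #11 in flank of female CB17 SCID, all with estrogen pellets.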

T47D#11 tumors = assay type: in vivo, CB17 SCID mice; conditions: T47D#11 tumors; SCID mice; multi-dose 15 mg/kg; Day 66
Method in brief: as §2

[4] = MCF7/PRLR tumors TRIAL #2, NCr Nude mice, multi-dose 15 mg/kg, Day 63
[5] = MCF7/PRLR tumors TRIAL #1, NCr Nude mice, multi-dose 15 mg/kg, Day 52

Row | Molecule | FACS Cell Binding [1] | FACS Cell Binding [2] | FACS Cell Binding [3] | Average Tumor Growth Inhibition (%) (MCF7/PRLR tumors; [4]) | Final Tumor size mm^3 (mean ± SEM) (MCF7/PRLR tumors; [4]) | Average Tumor Growth Inhibition (%) (T47D#11 tumors) | Final Tumor size mm^3 (mean ± SEM) (T47D#11 tumors) | Average Tumor Growth Inhibition (%) (MCF7/PRLR tumors; [5]) | Final Tumor size mm^3 (mean ± SEM) (MCF7/PRLR tumors; [5]) | Final Tumor size mm^3 (mean ± SEM) (MCF7/PRLR tumors; MCF7/PRLR tumors, single dose 15 mg/kg, Day 55)
1 | B1 | 38 Fold Above Background | 1 Fold Above Background | 40 Fold Above Background | 19% | 737 ± 182 mm^3 | −3% | 1278 ± 164 mm^3 | – | – | –
2 | B2 | 35 Fold Above Background | 1 Fold Above Background | 37 Fold Above Background | 17% | 766 ± 128 mm^3 | −3% | 1259 ± 122 mm^3 | 74% | 483 ± 46 mm^3 | 703 ± 160 mm^3
3 | B3 | 41 Fold Above Background | 4 Fold Above Background | 43 Fold Above Background | 88% | 300 ± 83 mm^3 | −29% | 1537 ± 111 mm^3 | – | – | –
